The supplement of paper PMC10567573

B1: KIAA1161 (parent)
chain: FMPAMQFSIPPWRYDAEVVAIAQK
B2: DVL3 (parent)
chain: FCADNPSELPPPMERTGGIGDSRP

Variants of: B1
Assay: protein stability index of a GFP-peptide fusion (GPS, HEK-293T) (PSI 1-6); higher = more stable
Details: c terminus: a fixed tail appended
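Also: lentivirally expressed fusions sorted by FACS into six bins by GFP to DsRed ratio, PSI derived from sequencing read proportions per bin multiplied by bin number.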

Protein stability index: each site, then its substitutions
Q6: H 1.86 | I 1.34 | K 1.93 | N 2.66 | R 1.82 | S 1.83 | T 1.55 | V 3.24 | Y 1.34
F7: A 1.97 | C 2.61 | D 2.9 | E 2.34 | G 1.61 | H 2.01 | I 2.9 | K 1.7 | L 1.82 | M 1.91 | N 2.24 | P 2.08 | Q 2.89 | S 1.6 | T 2.24 | W 1.68 | Y 1.7
S8: A 1.69 | C 1.07 | D 1.54 | F 2.68 | G 1.65 | I 2.81 | K 2.93 | L 2.05 | M 1.71 | N 2.7 | P 2.1 | Q 2.11 | R 1.99 | T 1.64 | V 2
I9: A 2 | D 2.57 | E 2.37 | F 2.48 | G 1.95 | H 2.35 | K 1.84 | M 2.04 | N 2.28 | P 1.93 | Q 1.67 | R 1.6 | S 2.08 | T 1.8 | W 3.43 | Y 2.83
P10: A 1.33 | D 1.27 | E 2.5 | G 1.33 | H 1.77 | I 2.86 | K 2.57 | L 2.99 | M 1 | Q 1.64 | R 1.28 | S 2.42 | T 2 | W 3.74 | Y 2.34
P11: A 1.61 | C 1.79 | D 2.37 | E 1.64 | F 2.17 | G 1.48 | H 3.1 | I 1.59 | K 1.65 | L 2.24 | N 2.11 | Q 1.78 | R 1.48 | S 2.03 | T 1.69 | V 1.01 | Y 2.28
W12: A 2.31 | C 1.73 | D 2.55 | E 2.08 | F 2.26 | G 2.76 | H 2.53 | I 2.18 | K 2.17 | L 2.23 | M 2.7 | N 2.49 | P 2.74 | Q 2.3 | R 2.39 | S 2.48 | T 2.44 | Y 1.99
R13: A 2.04 | D 2.67 | E 2.48 | F 1.1 | G 1.53 | I 1.81 | K 2.21 | N 2.51 | P 2.17 | Q 2.53 | S 1.63 | T 2.02 | V 1.16 | W 1.58 | Y 1.69
Y14: A 2.2 | C 1.67 | D 2.2 | F 1.63 | G 1.93 | H 2.52 | I 1.05 | K 2.08 | L 1.59 | M 2.25 | N 2.37 | P 1.79 | Q 2.57 | S 2.13 | T 2.82
D15: E 2.5 | G 1.75 | K 1.25 | L 1.5 | M 2.56 | N 3.08 | P 1.17 | Q 1.94 | R 1.95 | S 1.24 | T 2.69 | W 1.19 | Y 3.05
A16: D 2.25 | E 1.97 | F 2.28 | G 1.2 | H 1.63 | I 3.3 | K 1.59 | M 1.53 | N 2.02 | P 2.08 | Q 1.62 | R 2.65 | S 1.72 | T 3.04 | V 2.52 | W 1.66 | Y 2.19
E17: A 1.2 | C 1.68 | D 1.54 | F 2.13 | G 1.72 | H 1.92 | I 1.52 | K 2.66 | N 1.62 | P 1.48 | Q 3.67 | R 1.38 | S 1.62 | V 1.24 | W 3.06 | Y 2.45
V18: A 2.17 | C 1.86 | D 2.36 | E 2.63 | F 1.62 | G 2.6 | H 2.93 | I 2.06 | K 2.33 | L 2.23 | M 1.88 | N 2.23 | P 2.96 | Q 2.81 | R 3.34 | S 2.05 | T 1.88 | W 3.22 | Y 2.03
V19: A 2.18 | C 2.39 | D 2.82 | E 2.42 | F 2.48 | G 2.2 | H 1.56 | I 1.46 | K 1.99 | L 1.47 | M 1.81 | N 3.31 | P 4.1 | Q 2.5 | R 2.83 | S 1.48 | T 2.21 | Y 3.33
A20: C 2.22 | D 3.07 | E 2.42 | F 2.54 | G 1.98 | H 1.97 | K 2.34 | M 1.32 | N 3.44 | P 2.16 | Q 2.41 | R 1.98 | S 1.59 | T 1.92 | V 1.91 | W 1.04
I21: D 2.59 | E 2.6 | F 2.52 | G 2.66 | H 2.32 | K 2.07 | L 1.93 | N 2.11 | P 2.16 | Q 2.81 | R 2.31 | S 2.38 | T 2.17 | V 1.68 | Y 1.64
A22: D 1.96 | F 2.18 | H 1.9 | K 1.88 | L 2.45 | N 1.6 | P 2.58 | Q 2.56 | S 1.94 | T 2.51 | V 2.01 | Y 1.23
Q23: A 2.23 | D 2.69 | F 1.35 | G 1.78 | H 1.66 | K 2.2 | M 3.29 | N 1.85 | P 1.99 | S 1.52 | T 1.92 | W 2.74 | Y 1.3
K24: A 2.31 | C 1.61 | D 1.82 | E 1.82 | F 2 | G 1.33 | H 2.54 | L 2.62 | M 1.33 | N 2.58 | P 2.01 | Q 1.86 | R 1.67 | S 1.68 | T 1.63 | V 2.36

Variants of: B2
Assay: as above
Details: c terminus: a fixed tail appended

Protein stability index of substitutions, site by site:
F1: A 5.49 | C 3.99 | D 5.43 | E 5.12 | G 5.33 | H 5.25 | I 5.05 | K 4.86 | L 4.63 | M 3.45 | N 5.58 | P 5.44 | Q 4.83 | R 4.68 | S 4.94 | T 4.99 | V 5.18 | W 4.26 | Y 4.89
C2: A 4.77 | D 5.46 | F 4.31 | G 4.83 | H 4.36 | I 4.71 | K 4.68 | L 5 | M 4.71 | N 4.43 | P 4.73 | R 4.58 | S 5 | T 5.06 | V 3.27 | W 3.44 | Y 4.75
A3: C 4.13 | D 5.11 | E 5.23 | F 3.56 | H 4.37 | I 4.25
